In patent publication US20150132314A1 (NOVIMMUNE S A, published 2015):

T1: cynomolgus IL-17F homodimer, His-tagged (cynomolgus, UniProt G7P4V0 31-163)
T1 sequence: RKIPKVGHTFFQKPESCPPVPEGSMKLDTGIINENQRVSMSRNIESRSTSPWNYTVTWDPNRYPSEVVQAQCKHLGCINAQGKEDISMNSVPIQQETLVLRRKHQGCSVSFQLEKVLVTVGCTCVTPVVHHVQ

T2: human IL-17F homodimer (human, UniProt Q96PD4 31-163)
T2 sequence (looked up): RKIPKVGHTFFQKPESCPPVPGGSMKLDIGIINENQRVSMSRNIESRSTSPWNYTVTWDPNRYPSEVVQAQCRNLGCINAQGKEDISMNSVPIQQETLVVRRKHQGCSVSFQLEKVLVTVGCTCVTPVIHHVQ


Key:
[1] = molecular target: T1, cynomolgus IL-17F homodimer, His-tagged; assay: cell-based or functional assay
[2] = molecular target: T2, human IL-17F homodimer; assay: cell-based or functional assay

Row | Binder | IC50 (nM), IL-6 secretion by MEF cells stimulated with IL-17F (5 ng/ml) and mTNF-α [1] [nM] | IC50 (nM), IL-6 secretion by MEF cells stimulated with IL-17F (5 ng/ml) and mTNF-α [2] [nM]
1 | 5E12 antibody (antibody, V domains shown) VH: QVQLVQSGGGLVQPGRSLRLSCAASGFTFDDYAMHWVRQAPGKGLEWVSGISWNSGTIGYADSVKGRFTISRDNAKNSLYLQMNSLRAEDTALYYCAKELYISDWDSYSYGMDVWGQGTTVTVSS VL: not shown | 22 | 
2 | 41B10 antibody (antibody, V domains shown) VH: not shown VL: DIQMTQSPSSLSASVGDRVTITCRASQGISSWLAWYQQKPEKAPKSLIYAASSLQSGVPSRFSGSGSGTDFTLTISSLQPEDFATYYCQQYNSYPITFGQGTRLEIK | 18 | 
3 | 5D3 antibody (antibody, V domains shown) VH: EVQLVESGGGLVQPGRSLRLSCAASGFTFDDYAMHWVRQAPGKGLEWVSGISWNSGSRGYADSVKGRFTISRDNAKNSLYLQMNSLRAEDTALYYCAKDMVYALDVWGQGTTVTVSS VL: EIVLTQSPGTLSLSPGERATLSCRASQSFSGSYLAWYQQKPGQAPRLLIYDTSSRATGIPDRFSGSGSGTDFTLTISRLEPEDFAVYYCQQYGTWTFGQGTKVEIK | 12 | 0.5
4 | 43G6 antibody (antibody, V domains shown) VH: EVQLVESGGGLVQPGGSLRLSCAASGFTFSSYSMNWVRQAPGKGLEWVSYISSGSSTIYYADSVKGRFTISRDNAKNSLYLQMNSLRDEDTAVYYCAREGYVSGTYYNYYYGMDVWGQGTTVTVSS VL: EIVLTQSPATLSLSPGERATLSCRASQSVSSYLAWYQQKPGQAPRLLIYDAPNRATGIPARFSGSGSGTDFTLTISSLEPEDFAVYYCQQRSNWSLTFGGGTKVEIK | 8.4 | 1.1
5 | 22F8 antibody (antibody, V domains shown) VH: EVQLLESGGGLVQPGGSLRLSCAASGFTFSSYAMNWVRQAPGKGLEWVSTISGRGGSIYYADSVKGRFTISRDNSKNTLYLQMNSLRAEDTAVYYCAKEEATWDFDYWGQGTTVTVSS VL: EIVLTQSPATLSLSPGERATLSCRASQSVSSFLAWFQQKPGQAPRLLIYDASNRATGIPARFSGSGSGTDFTLTISSLEPEDFAVYYCQQRSNWPPTFGQGTKVEIK | 10 | 2
6 | 2E12 antibody (antibody, V domains shown) VH: EVQLVESGGGLVQRGGSLRLSCAASGFTFSSYSMNWVRQAPGKGLEWISYISSSSSAIYYADSVKGRFTISRDNAKNSLYLQMNSLRDEDTAVYYCAREGYASGRYYNYYYGMDVWGQGTTVTVSS VL: EIVLTQSPATLSLSPGERATLSCRASQSVSSYLAWYQQKPGQAPRLLIYDASNRATGIPARFSVSGSGTDFTLTISSLEPEDFAVYYCQQRSSWSLTFGGGTKVEIK | 26 | 5.9
7 | 21B10 antibody (antibody, V domains shown) VH: EVQLVESGGGLVQPGGSLRLSCAASGFTFSSYSMNWVRQAPGKGLEWVSYISGGSSTIYYADSVKGRFTISRDNAKNSLYLQMNSLRDEDTAVYYCAREGYVSGTYYNYYYGMDVWGQGTTVTVSS VL: EIVLTQSPATLSLSPGERATLSCRASQSVSSYLAWYQQKPGQAPRLLIYDAPNRATGIPARFSGSGSGTDFTLTISSLEPEDFAVYYCQQRSNWSLTFGGGTKVEIK | 8.7 | 2

Second part, the binder after the results:

Row | IC50 (nM), IL-6 secretion by MEF cells stimulated with IL-17F (5 ng/ml) and mTNF-α [1] [nM] | IC50 (nM), IL-6 secretion by MEF cells stimulated with IL-17F (5 ng/ml) and mTNF-α [2] [nM] | Binder
8 | 11 | 1.1 | 1F1 antibody (antibody, V domains shown) VH: EVQLLESGGGLVQPGGSLRLSCAASGFTFSSYVMSWVRQVPGKGLEWVSAISGRGGNTFYADSVKGRFTISRDNSKNTLYLQMDSLRAEDTAVYYCAKDDRRIAAGSFDYWGQGTTVTVSS VL: AIQLTQSPSSLSASVGDRVTITCRASQGISSALAWYQQKPGKAPKLLIYDVSSLESGVPSRFSGSGSGTDFTLTISSLQPEDFATYYCQQFNSYPLTFGGGTKVEIK
9 | 2.9 | 0.4 | 11C5 antibody (antibody, V domains shown) VH: QVQLVQSGAEVKKPGASVKVSCKASGYTFTIYYLHWVRQAPGQGLEWMGIINPSGGRTNYAQKFQGRVTMTRDPSTNTVYMELSSLTSEDAAVYYCARGEFSSGWLDYWGQGTTVTVSS VL: DIQMTQSPSSVSASVGDRVTITCRASQGISSWLAWYQHKPGKAPKLLIYAASSLQSGVPSRFSGSGSGTDFTLTISSLQPEDFATYYCQQANSFPLTFGGGTKVEIK
10 | 6.3 | 1.2 | 28B11 antibody (antibody, V domains shown) VH: QVQLVESGGGLVKPGGSLRLSCAASGFTFSNYYMTWIRQAPGKGLEWISYISSTGGNIYYADSVKGRFTISRDNAQNSLYLQMNSLRAEDTAVYYCARDGGVIISTAMFDYWGQGTTVTVSS VL: AIQLTQSPSSLSASVGDRVTITCRASQGISSALAWYQQKPGKAPKLLIYDASSLESGVPSRLSGSGSGTDFTLTISSLQPEDFATYYCQQFNSYPLTFGGGTKVEIK
